# Reference: article PMC4198471 (Biochimica et biophysica acta, 2014)
# Target: T1, Trx-RhopH3-C (P. falciparum RhopH3 amino acids 620-897 with Trx and His tags) (Plasmodium falciparum, UniProt Q8I395 620-897)
# T1 sequence: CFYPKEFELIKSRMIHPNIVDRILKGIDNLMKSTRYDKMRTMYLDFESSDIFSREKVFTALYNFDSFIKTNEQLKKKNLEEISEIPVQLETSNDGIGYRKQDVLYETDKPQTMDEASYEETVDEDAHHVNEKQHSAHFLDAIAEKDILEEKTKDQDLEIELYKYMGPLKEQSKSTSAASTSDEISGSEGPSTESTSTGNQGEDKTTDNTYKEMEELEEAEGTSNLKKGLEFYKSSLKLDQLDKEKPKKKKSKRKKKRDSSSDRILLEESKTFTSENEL
# Assay: ELISA
binder,measurement,value
"GMPWLSATTVRSVTHANALTVMGKASTPGAAAQIQEVKEQRI (domain or fragment, UniProt P02730 720-761, looked up) [GST-5ABC (5ABC region of human erythrocyte band 3, amino acids 720-761, as GST fusion protein)]",Kd,183 ± 0.111 nM
